Where no end group is shown, it is not given here. The star is where a group is joined. Biotin = O=C1N[C@H]2[C@H](CS[C@H]2CCCCC(=O)*)N1; Ahx = NCCCCCC(=O)O
Legend:
[1] = target: the molecule itself; test: crystal structure; Hsp104ND1 crystals grown at 4 °C, space group P6_(5)22, one molecule per asymmetric unit, nucleotide-free; N domain of one molecule contacts the C1 helix of the neighboring molecule; 2.8 Å
[2] = target: T1, Hsp104N, isolated N domain of S. cerevisiae Hsp104 (first 165 residues) (S. cerevisiae, UniProt P31539 1-165); test: BLI; Octet RED96; biotinylated C1 peptide immobilised on streptavidin biosensors at 0.5 µM; Hsp104N 4.3 to 137 µM in solution; 50 mM Tris-HCl pH 8.5, 20 mM ammonium citrate, 10% PEG4000, 0.1 mg/ml BSA; 25 °C; 10 min association, 10 min dissociation; equilibrium shifts from two independent measurements; details: both partners purified
T1 construct: Hsp104, S. cerevisiae, isolated N domain consisting of the first 165 residues, cloned into pProEX HTb; Tag cleavage by TEV is told in the general purification paragraph, not for Hsp104N by name; also called His6-Hsp104N; source: E. coli BL21-CodonPlus (DE3)-RIL, purified (Ni-NTA, anion exchange); not shown: His6, N-terminal, cleaved

Binder | binding result [1] | Kd [2] [µM]
Hsp104ND1, N-terminal fragment of Saccharomyces cerevisiae Hsp104 (residues 1-360) (domain or fragment, S. cerevisiae, UniProt P31539 1-360, looked up, Hsp104, S. cerevisiae, residues 1-360: N domain and extended D1-large domain with the first helix of the D1-small domain (C1 helix, residues 343-351); residues 4 to 352 traced; The general purification text describes Ni-NTA and TEV cleavage of an N-terminal His6 tag; also called N-terminal fragment of yeast Hsp104) MNDQTQFTERALTILTLAQKLASDHQHPQLQPIHILAAFIETPEDGSVPYLQNLIEKGRYDYDLFKKVVNRNLVRIPQQQPAPAEITPSYALGKVLQDAAKIQKQQKDSFIAQDHILFALFNDSSIQQIFKEAQVDIEAIKQQALELRGNTRIDSRGADTNTPLEYLSKYAIDMTEQARQGKLDPVIGREEEIRSTIRVLARRIKSNPCLIGEPGIGKTAIIEGVAQRIIDDDVPTILQGAKLFSLDLAALTAGAKYKGDFEERFKGVLKEIEESKTLIVLFIDEIHMLMGNGKDDAANILKPALSRGQLKVIGATTNNEYRSIVEKDGAFERRFQKIEVAEPSVRQTVAILRGLQPKYE | binds | 
{Biotin-Ahx}-GEVAEPSVRQTVAILRGLQ (Immobilised on streptavidin biosensors through the biotin; source: synthetic peptide (AAPPTec LLC)) [Biotinylated C1 peptide (Biotin-Ahx-GEVAEPSVRQTVAILRGLQ)] |  | 14 ± 1.7

Reference: publication PMC5593927, “Overlapping and Specific Functions of the Hsp104 N Domain Define Its Role in Protein Disaggregation” (Scientific Reports, 2017)
